From patent CN117327177A (dated 2024)

B1: Anti-APN 6C2mut1 (antibody, V domains shown)
VH: EVQLQQSGPELVKPGASVKMSCKASGYSFTGYFINWVKQSHGKSLEWIGRINPYNGDTFYNEKFKGKATFTADISSSAAHMELLSLTSEDSAVYYCGRGGGLQRPYFDYWGQGTTLTVSP
VL: DIQMTQSSSYLSVSLGGRVTITCKASDHVNNWLAWYQQKPGNAPRLLISGATNLETGVPSRFSGSGSGKDYTLTITSVQTEDVATYYCQQYWISALTFGAGTKLELN

Columns and labels:
脂联素抗原(购自HYTEST，8AN7) [1] = target: 脂联素抗原(购自HYTEST，8AN7) (UniProt Q15848); assay: indirect ELISA, adiponectin coated at 0.5 ug/ml, antibody at 0.39 ng/ml
脂联素抗原(购自HYTEST，8AN7) [2] = target: 脂联素抗原(购自HYTEST，8AN7) (UniProt Q15848); assay: indirect ELISA, adiponectin coated at 0.5 ug/ml, antibody at 6.25 ng/ml
脂联素抗原(购自HYTEST，8AN7) [3] = target: 脂联素抗原(购自HYTEST，8AN7) (UniProt Q15848); assay: indirect ELISA, adiponectin coated at 0.5 ug/ml, antibody at 3.13 ng/ml
脂联素抗原(购自HYTEST，8AN7) [4] = target: 脂联素抗原(购自HYTEST，8AN7) (UniProt Q15848); assay: indirect ELISA, adiponectin coated at 0.5 ug/ml, antibody at 1.56 ng/ml
脂联素抗原(购自HYTEST，8AN7) [5] = target: 脂联素抗原(购自HYTEST，8AN7) (UniProt Q15848); assay: BLI, antibody captured on AMC sensor, adiponectin antigen in gradient dilution in PBST
脂联素抗原(购自HYTEST，8AN7) [6] = target: 脂联素抗原(购自HYTEST，8AN7) (UniProt Q15848); assay: indirect ELISA, adiponectin coated at 0.5 ug/ml, antibody at 0.78 ng/ml
脂联素抗原(购自HYTEST，8AN7) [7] = target: 脂联素抗原(购自HYTEST，8AN7) (UniProt Q15848); assay: indirect ELISA, adiponectin coated at 0.5 ug/ml, antibody at 0 ng/ml (blank)
Adiponectin = target: T1, Adiponectin (human, UniProt Q15848); assay: BLI
T1 chain: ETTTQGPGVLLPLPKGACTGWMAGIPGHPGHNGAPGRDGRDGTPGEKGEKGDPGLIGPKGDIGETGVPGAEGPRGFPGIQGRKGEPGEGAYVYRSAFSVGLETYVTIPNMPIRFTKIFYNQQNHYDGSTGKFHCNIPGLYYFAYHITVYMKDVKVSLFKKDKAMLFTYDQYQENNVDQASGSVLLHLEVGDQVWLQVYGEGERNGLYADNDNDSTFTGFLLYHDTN

| Molecule | OD450 (ref 630 nm) (脂联素抗原(购自HYTEST，8AN7) [1]) [OD] | OD450 (ref 630 nm) (脂联素抗原(购自HYTEST，8AN7) [2]) [OD] | OD450 (ref 630 nm) (脂联素抗原(购自HYTEST，8AN7) [3]) [OD] | OD450 (ref 630 nm) (脂联素抗原(购自HYTEST，8AN7) [4]) [OD] | Kd (脂联素抗原(购自HYTEST，8AN7) [5]) [nM] | koff (脂联素抗原(购自HYTEST，8AN7) [5]) [s⁻¹] | kon (脂联素抗原(购自HYTEST，8AN7) [5]) [M⁻¹ s⁻¹] | OD450 (ref 630 nm) (脂联素抗原(购自HYTEST，8AN7) [6]) [OD] | OD450 (ref 630 nm) (脂联素抗原(购自HYTEST，8AN7) [7]) [OD] | Kd (Adiponectin) [nM] |
| --- | --- | --- | --- | --- | --- | --- | --- | --- | --- | --- |
| 对照 (antibody) | 0.261 | 1.8 | 1.43 | 0.802 | 87.1 | 0.00923 | 106000 | 0.451 | 0.055 |  |
| B1 | 1.02 | 2.33 | 2.26 | 2.06 |  | 0.00209 | 5.58e+06 | 1.79 | 0.074 | 0.374 |
